Experimental data taken from US20180021429A1, “ANTICANCER AGENTS OR ANTIMETASTATIC AGENTS USING FSTL1 AND COMBINATION DRUG THEREOF” (PHARMA FOODS INTERNATIONAL CO., LTD., priority 2015, published 2018).

What was measured:
FSTL1 = target: T1, FSTL1 (Homo sapiens, UniProt Q12841); experiment: Treg induction inhibitory activity using human peripheral blood cells stimulated with FSTL1; format: cell-based; parameters: purchased R&D Systems, Inc. 1694-FN-050; conditions: human PBMCs; FSTL1 5 ng/ml; antibody 5 μg/mL; 3 days
T1 sequence (Q12841 21-308): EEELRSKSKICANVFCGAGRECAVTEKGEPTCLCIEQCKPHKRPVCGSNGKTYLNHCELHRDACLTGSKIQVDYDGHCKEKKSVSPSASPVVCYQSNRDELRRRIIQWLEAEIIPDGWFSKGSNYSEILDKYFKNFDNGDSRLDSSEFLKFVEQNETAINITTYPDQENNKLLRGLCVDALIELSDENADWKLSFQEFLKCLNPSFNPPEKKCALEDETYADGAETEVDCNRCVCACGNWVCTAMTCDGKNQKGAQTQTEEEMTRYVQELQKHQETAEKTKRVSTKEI
Description: (§1) Human peripheral blood cells (1×10^6 cells) were stimulated using FSTL1 (5 ng/ml), supplemented with the antibody (5 μg/mL), and cultured for 3 days. The percentage of a Foxp3^+CTLA4^+ cell fraction (Exp. 1) or a CD4^+Foxp3^+CTLA4^+ cell fraction (Exp. 2) in CD4^+ T cells was analyzed as Treg cells by flow cytometry. The flow cytometry conditions are as follows.
Blood was collected from a healthy person by the addition of a 1/10 amount of 4% sodium citrate, then layered on Ficoll (specific gravity: 1.090), and centrifuged (1500 rpm, 20 min, room temperature), and a cell fraction present in an intermediate layer was used as “PBMCs”. The antibody (5 μg/mL) was added to a system in which these PBMCs (1×10^6 cells) were cultured for 3 days under stimulation with FSTL1 (5 ng/ml) in a 24-well plate. […] Then, the percentage of a Foxp3+CTLA4+ cell fraction (Exp. 1) or a CD4^+Foxp3^+CTLA4^+ cell fraction (Exp. 2) in CD4+ T cells contained therein was analyzed as Treg cells using a flow cytometer FACScan (Becton, Dickinson and Company).
as §1, with “a Foxp3^+ CTLA4^+” for “a Foxp3^+CTLA4^+”, “cytometry. […]” for “cytometry. The flow cytometry conditions are as follows.”

[1] = tested on: mouse colorectal cancer CT26 cells; experiment: In vivo, mouse colorectal cancer CT26 cell-transplanted model (Example 20); conditions: intraperitoneal 10 mg/kg on days 4 and 7
Description: (§2) Procedures and methods of the experiment were basically performed under substantially the same conditions as in the bone metastasis model experiments of Examples 17 to 19 except that bone metastasis was not evaluated. Specifically, drug efficacy evaluation was conducted using mouse tumor models other than Snail-positive tumor bone metastasis models. The drug efficacy of the anti-FSTL1 antibody was evaluated using cancer-bearing models of BALB/c mice different in strain from the C57BL/6 mice used in the preceding tests. The test was conducted by changing only the amount of tumor implanted, antibody administration timing, and assay timing. • Day 0: transplantation of tumor cells (5×10^5 cells subcutaneously & 5×10^5 cells intravenously) Days 4 and 7: intraperitoneal administration of the antibody (10 mg/kg) • Day 14: drug efficacy evaluation (subcutaneous tumor growth (FIG. 44A) and lung metastasis (FIG. 44B))
For lung metastasis, the number of metastatic nodules in the lung was macroscopically counted. The tumor volumes of the mice were measured 7, 11, and 14 days after tumor implantation.
as §2, with “intravenously) •” for “intravenously)”, “76A)” for “44A)”, “76B))” for “44B))”

human FSTL1 = target: T2, human FSTL1 (Homo sapiens, UniProt Q12841); experiment: ELISA binding activity of purified antibody against human FSTL1; conditions: FIG. 95B
T2 construct: AAA linker + 10xHis (C); made in house; host or cells: Expi293 (transient expression; purified from culture supernatant on HisPur Cobalt Resin)
T2 sequence (Q12841 with tags, fused parts or gaps): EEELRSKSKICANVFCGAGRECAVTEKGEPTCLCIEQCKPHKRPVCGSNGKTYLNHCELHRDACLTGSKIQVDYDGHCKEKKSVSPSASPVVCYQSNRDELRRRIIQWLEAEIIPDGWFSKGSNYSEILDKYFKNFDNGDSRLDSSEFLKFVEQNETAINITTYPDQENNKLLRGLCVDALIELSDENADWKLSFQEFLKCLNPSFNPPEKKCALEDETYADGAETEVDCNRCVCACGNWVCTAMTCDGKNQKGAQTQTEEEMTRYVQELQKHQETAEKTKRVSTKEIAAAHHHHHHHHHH
Description: The reactivity of the obtained antibody clones described above with FSTL1 was evaluated by ELISA under the following conditions.
(Table 2 ELISA Conditions for Binding Activity Evaluation of Purified Antibody)
Antibodies used: anti-dinitrophenyl (DNP) antibody (negative control), #5-2, #5-3, #5-8, #5-10, #5-43, #6-55, and #7-34
FIGS. 96 and 97 show results of evaluating binding activity under the condition of Table 3 as to clones differing in screening and antibody purification timings.
(Table 3 ELISA Conditions for Binding Activity Evaluation of Purified Antibody)

B1: #6-55: chicken-mouse chimeric anti-FSTL1 antibody clone; variable regions SEQ ID NO: 783 (light), 785 (heavy) (antibody, V domains shown)
VH: AVTLDESGGGLQTPGGALSLVCKGSGFTFTSVTMQWVRQAPGKGLEWVASVCSGSSTYYAPAVKGRATISRDNGQSTVRLQLSNLRPEDTGTYYCAKIAGRARWSCTSAAYNIDAWGHGTEVIVSS
VL: ASTQPSSVSAIPGETVKITCSGGGNNYGWYQQRSPGSAPVTVIYYNDNRPSNIPSRFSGSTSGSTSTLTITGVQADDEAIYYCGSWDSNTDSGIFGAGTTLTVL
modifications: mouse constant regions
B1 was tested, and the “Treg induction caused by FSTL1 (Foxp3+CTLA4+ fraction in CD4+ T cells)” value (FSTL1) was “significantly suppressed”, the “growth of CT26 subcutaneous tumor” value ([1]; BALB/c mice) was “very strongly suppressed” and the “lung metastasis of CT26 tumor” value ([1]; BALB/c mice, day 14) was “very strongly suppressed”. For the same molecule, the “mice in which solid tumor disappeared” value ([1]; n=5) was “three out of the five mice” and the “binding activity against human FSTL1” value (human FSTL1) was “specific and equivalently strong binding activity”.
